Data as given in IntAct's records for PubMed 24843043.

B1: Outer mitochondrial transmembrane helix translocase (Saccharomyces cerevisiae), P28737 (parent)
chain: MSRKFDLKTITDLSVLVGTGISLYYLVSRLLNDVESGPLSGKSRESKAKQSLQWEKLVKRSPALAEVTLDAYERTILSSIVTPDEINITFQDIGGLDPLISDLHESVIYPLMMPEVYSNSPLLQAPSGVLLYGPPGCGKTMLAKALAKESGANFISIRMSSIMDKWYGESNKIVDAMFSLANKLQPCIIFIDEIDSFLRERSSTDHEVTATLKAEFMTLWDGLLNNGRVMIIGATNRINDIDDAFLRRLPKRFLVSLPGSDQRYKILSVLLKDTKLDEDEFDLQLIADNTKGFSGSDLKELCREAALDAAKEYIKQKRQLIDSGTIDVNDTSSLKIRPLKTKDFTKKLRMDATSTLSSQPLD
partner: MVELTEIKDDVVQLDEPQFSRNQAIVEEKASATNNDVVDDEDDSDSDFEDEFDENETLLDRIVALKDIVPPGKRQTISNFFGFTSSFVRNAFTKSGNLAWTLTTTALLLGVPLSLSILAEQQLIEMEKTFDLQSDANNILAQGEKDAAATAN
B2: Outer mitochondrial transmembrane helix translocase (Saccharomyces cerevisiae), P28737 (parent)
chain: B1 chain
partner: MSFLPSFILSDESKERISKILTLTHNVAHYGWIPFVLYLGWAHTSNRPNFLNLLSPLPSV

Variants of: B1
Details: with tom22_yeast TOM22, P49334

Row | Variant | effect of a mutation on the interaction
1 | E193Q | increasing interaction

Variants of: B2
Details: with tom7_yeast TOM7, P53507

Row | Variant | effect of a mutation on the interaction
2 | E193Q | increasing interaction
